Data: patent US20220033501A1 (SHANGHAI PHARMAEXPLORER, published 2022)
Substitutions are numbered along the chain they refer to.

Tests used:
[1] = molecular target: T1, human TIM-3 extracellular domain protein with hFc tag (hTIM-3-hFc) (human, UniProt Q8TDQ0 22-200); assay: ELISA, coated human TIM-3 ECD protein, 0.0067 nM antibody
T1 construct: not shown: human IgG Fc fragment (hFc) of the pCpC vector
T1 sequence: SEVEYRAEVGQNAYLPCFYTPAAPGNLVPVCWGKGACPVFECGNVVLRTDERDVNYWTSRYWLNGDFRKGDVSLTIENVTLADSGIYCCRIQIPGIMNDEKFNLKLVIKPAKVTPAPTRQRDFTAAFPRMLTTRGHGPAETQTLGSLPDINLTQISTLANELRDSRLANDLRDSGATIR

[2] = molecular target: T2, murine TIM-3 extracellular domain protein with hFc tag (mTIM-3-hFc) (mouse, UniProt Q8VIM0 29-191); assay: ELISA, coated mouse TIM-3 ECD protein, 0.0007 nM antibody
T2 construct: also called mouse TIM-3 extracellular domain protein; not shown: human IgG Fc fragment (hFc) of the pCpC vector
T2 chain: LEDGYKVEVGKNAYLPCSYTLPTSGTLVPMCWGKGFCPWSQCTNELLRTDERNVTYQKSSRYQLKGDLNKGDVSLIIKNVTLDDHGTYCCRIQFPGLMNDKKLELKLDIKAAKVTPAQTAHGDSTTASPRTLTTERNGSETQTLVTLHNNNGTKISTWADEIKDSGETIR

[3] = molecular target: T3, monkey TIM-3 on CHOK1 stable cell line (CHOK1-cTIM-3) (monkey); assay: FACS, CHOK1-cTIM-3 cells, 0.064 nM antibody
T3 chain: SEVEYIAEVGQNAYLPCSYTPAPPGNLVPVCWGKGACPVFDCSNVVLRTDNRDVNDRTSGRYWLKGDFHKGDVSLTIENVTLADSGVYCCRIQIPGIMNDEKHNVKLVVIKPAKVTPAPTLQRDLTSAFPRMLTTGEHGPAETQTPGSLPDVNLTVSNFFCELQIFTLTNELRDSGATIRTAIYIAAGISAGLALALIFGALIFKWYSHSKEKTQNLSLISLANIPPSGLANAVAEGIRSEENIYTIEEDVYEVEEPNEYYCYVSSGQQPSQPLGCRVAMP

[4] = molecular target: T2, murine TIM-3 extracellular domain …; assay: ELISA, coated mouse TIM-3 ECD protein, 6.6667 nM antibody
[5] = molecular target: T4, human TIM-3 protein with hFc tag (hTIM-3-hFc protein) (human, UniProt Q8TDQ0 22-200); assay: ELISA, coated hTIM-3-hFc; antibody 0.0001 nM
T4 construct: also called immunogen 1; human TIM-3 extracellular domain protein; not shown: human IgG Fc fragment (hFc) of the pCpC vector
T4 sequence: T1 sequence
Excerpt: (§1) The amino acid sequence 22-200 of the extracellular domain of the human TIM-3 protein described in the step of Example 1 (as shown in SEQ ID NO. 71 in the sequence listing) was cloned into a pCpC vector having a human IgG Fc fragment (hFc), and transfected into HEK293 cells. The cell culture medium was collected, and purified to obtain the human TIM-3 protein with hFc tag (herein referred to as hTIM-3-hFc protein). The amino acid sequence 22-201 of the extracellular domain of the monkey TIM-3 protein (as shown in SEQ ID NO. 72 in the sequence listing) was cloned into a pCpC vector having a human IgG Fc fragment (hFc), and transfected into HEK293 cells. The cell culture medium was collected, and purified to obtain the monkey TIM-3 protein with hFc tag (herein referred to as cTIM-3-hFc protein). […] The cell culture medium was collected, and purified to obtain the murine TIM-3 protein with hFc tag (herein referred to as mTIM-3-hFc protein). Purified human, monkey, and mouse TIM-3 extracellular domain proteins (hTIM-3-hFc, cTIM-3-hFc, and mTIM-3-hFc) were diluted with PBS to a final concentration of 1.0 μg/ml and then added to a 96-well ELISA plate with 100 μl per well. The plate was sealed with plastic film and incubated overnight at 4° C. The plate was washed 4 times with the plate washing solution (PBS+0.01% Tween20) on the next day, and added with the blocking solution (PBS+0.01% Tween20+1% BSA) and sealed at room temperature for 1-2 hours. The blocking solution was poured out. 50-100 μl of the antibody sample to be tested was added to each well. The plate was incubated at 37° C. for 1-2 hours, and washed 2-3 times with plate washing solution (PBS+0. 01% Tween20). HRP (horseradish peroxidase) labeled secondary antibody was added. The plate was incubated at 37° C. for 1-2 hours, and washed 2-3 times with plate washing solution (PBS+0. 01% Tween20). […] of TMB substrate was added to each well. After incubated at room temperature for 15-30 minutes, the plate was added with […] stop solution (1.0N HCl) to each well. An ELISA plate reader (TiterMax 384plus, Molecular Device) was used to read the A450 nm value.

[6] = molecular target: T5, monkey TIM-3 protein with hFc tag (cTIM-3-hFc protein) (monkey; human); assay: ELISA, coated cTIM-3-hFc; antibody 0 nM (blank)
T5 construct: Made in HEK293 cells; also called monkey TIM-3 extracellular domain protein; not shown: human IgG Fc fragment (hFc) of the pCpC vector
T5 chain: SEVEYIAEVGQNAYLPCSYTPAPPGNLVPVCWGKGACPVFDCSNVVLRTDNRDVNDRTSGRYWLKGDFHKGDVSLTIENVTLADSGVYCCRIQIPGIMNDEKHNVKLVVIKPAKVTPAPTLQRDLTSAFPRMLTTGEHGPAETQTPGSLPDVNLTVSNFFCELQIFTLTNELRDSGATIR
Excerpt: as §1

[7] = molecular target: T6, murine TIM-3 protein with hFc tag (mTIM-3-hFc protein) (mouse; human, UniProt Q8VIM0 29-191); assay: ELISA, coated mTIM-3-hFc
T6 construct: Made in HEK293 cells; also called mouse TIM-3 extracellular domain protein; not shown: human IgG Fc fragment (hFc) of the pCpC vector
T6 chain: T2 chain

[8] = molecular target: T4, human TIM-3 protein with hFc tag …; assay: ELISA, coated hTIM-3-hFc; antibody 0.0067 nM
Excerpt: as §1

[9] = molecular target: T6, murine TIM-3 protein with hFc tag …; assay: ELISA, coated mTIM-3-hFc; antibody 0 nM (blank)
Excerpt: as §1

[10] = molecular target: T4, human TIM-3 protein with hFc tag …; assay: ELISA, coated hTIM-3-hFc; antibody 0.0667 nM
Excerpt: as §1

B1: 57F4E5 fully human TIM-3 antibody (human IgG4, kappa) (antibody, V domains shown)
VH: EVQLVESGGGLVQPGGSLRLSCAASGFTFSSYWMSWVRQAPGKGLEWVANIKQDGSEKYYVDSVKGRFTISRDSAKNSLYLQMNSLRAEDTAMYFCARDSNFFDYWGQGTLVTVSS
VL: ETVMTQSPATLSVSPGERATLSCRASQSVSSNLAWYQRKPGQAPRLLIYFSSTRATGIPARFSGSGSGTEFTLTISSLQSEDFAVYYCQQYNNWPLTFGGGTKVEIK
- OD450 [1]: 0.23
- OD450 [2]: 0.23
- Mean fluorescence intensity [3]: 30.6
- OD450 [4]: 0.54

B2: 39E5H1 (TIM-3 antibody purified from hybridoma, chimeric antibody of Example 2) (antibody, V domains shown)
VH: EVQLVESGGGLVQPGGSLRLSCAASGFTFSSYWMSWVRQAPGKGLEWVANIKRGGSERYYVDSVKGRFTISGDNAKNSVYLQMNSLRAEDTAVYYCARGSNWFDPWGQGTLVTVSS
VL: B1 VL with T10I, S30Y, R38Q, P40L, F50D, S51A, L96I, G100Q, K103R, V104L
notes: From hybridoma of Harbour H2L2 transgenic mice: human variable regions, rat constant regions
- OD450 [5]: 0.13
- OD450 [6]: 0.59
- binding result [7]: no binding (tested: 66.667 nM)
- OD450 [8]: 0.42
- OD450 [9]: 0.62
- OD450 [10]: 1.78

B3: 134H3G6 fully human TIM-3 antibody (human IgG4, kappa) (antibody, V domains shown)
VH: EVQLVESGGGLVQPGGSLRLSCAASGFTFSNSWMTWVRQAPGKGLEWVANIKQAGTEKYYVDSVKGRFTISRDNAKNSLYLQMNSLRAEDTAVYYCNSGSNYFDYWGQGTLVTVSS
VL: B1 VL with T2I, S26R, S28N, V29F, S30Y, R38Q, F50G, S51A
- OD450 [1]: 0.27
- OD450 [2]: 0.21
- Mean fluorescence intensity [3]: 46.4
- OD450 [4]: 0.36

B4: 57F4E5 (TIM-3 antibody purified from hybridoma, chimeric antibody of Example 2) (antibody, V domains shown)
VH: B1 VH
VL: B1 VL
notes: as for B2
- OD450 [5]: 0.13
- OD450 [6]: 0.56
- binding result [7]: no binding (tested: 66.667 nM)
- OD450 [8]: 0.63
- OD450 [9]: 0.64
- OD450 [10]: 2.83

B5: 134H3G6 (TIM-3 antibody purified from hybridoma, chimeric antibody of Example 2) (antibody, V domains shown)
VH: B3 VH
VL: B1 VL with T2I, S26R, S28N, V29F, S30Y, R38Q, F50G, S51A
notes: as for B2
- OD450 [5]: 0.12
- OD450 [6]: 0.55
- binding result [7]: no binding (tested: 66.667 nM)
- OD450 [8]: 0.13
- OD450 [9]: 0.64
- OD450 [10]: 0.2

B6: 18D2H2 (TIM-3 antibody purified from hybridoma, chimeric antibody of Example 2) (antibody, V domains shown)
VH: EVQLVESGGDLVQPGGSLRLSCAASGFTFSTYWMTWVRQAPGRGLEWVANIKQDGSAKYYVDSVKGRFTLSRDDAKNSLYLQMNSLRAEDTAVYYCARGSNWFDYWGQGTLVTVSS
VL: B1 VL with S26N, S28N, S30Y, R38Q, F50D, S51A, I58F
notes: as for B2
- OD450 [5]: 0.12
- OD450 [6]: 0.55
- binding result [7]: no binding (tested: 66.667 nM)
- OD450 [8]: 0.16
- OD450 [9]: 0.62
- OD450 [10]: 0.35

B7: 7A4F10 fully human TIM-3 antibody (human IgG4, kappa) (antibody, V domains shown)
VH: EVQLLESGGGLVQPGGSLRLSCAASGFTFRTHLISWVRQAPGKGLEWVAAITGSGGSTYYADSVKGRFIISRDNSKNTLFLQMNSLRAEDTAVYYCAKDGGSGSYDDFWGQGTLVTVSS
VL: ETVLTQSPVTLSLSPGERATLSCRASQSVGSYLAWYQQKPGQAPRLLIYDASNRATGIPARFSGSGSGTDFTLTISSLEPEDFAVYYCQQRSNWPPTFGQGTKVEIK
- OD450 [1]: 0.32
- OD450 [2]: 0.22
- Mean fluorescence intensity [3]: 17.2
- OD450 [4]: 0.36

B8: 7A4F10 (TIM-3 antibody purified from hybridoma, chimeric antibody of Example 2) (antibody, V domains shown)
VH: B7 VH
VL: B7 VL
notes: as for B2
- OD450 [5]: 0.12
- OD450 [6]: 0.54
- binding result [7]: no binding (tested: 66.667 nM)
- OD450 [8]: 0.13
- OD450 [9]: 0.63
- OD450 [10]: 0.21

B9: 215A8F2 fully human TIM-3 antibody (human IgG4, kappa) (antibody, V domains shown)
VH: QVQLQQWGAGLLKPSETLSLTCTVYGGSFSGYYWNWIRQPPGKGLEWLGEINHSGSTNYNPSLKRRVTISVDTSKNQFSLKLSSVTAADTAVYYCARVYYYGPFDFWGQGTLVTVSS
VL: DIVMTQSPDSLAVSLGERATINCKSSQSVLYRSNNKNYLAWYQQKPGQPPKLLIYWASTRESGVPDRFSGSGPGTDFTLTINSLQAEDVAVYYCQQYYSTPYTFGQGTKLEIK
- OD450 [1]: 0.27
- OD450 [2]: 0.21
- Mean fluorescence intensity [3]: 29.9
- OD450 [4]: 0.38

B10: 215A8F2 (TIM-3 antibody purified from hybridoma, chimeric antibody of Example 2) (antibody, V domains shown)
VH: B9 VH
VL: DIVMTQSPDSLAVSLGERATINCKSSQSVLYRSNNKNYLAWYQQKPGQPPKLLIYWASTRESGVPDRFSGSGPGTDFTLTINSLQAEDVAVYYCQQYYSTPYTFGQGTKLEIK
notes: as for B2
- OD450 [5]: 0.12
- OD450 [6]: 0.57
- binding result [7]: no binding (tested: 66.667 nM)
- OD450 [8]: 0.28
- OD450 [9]: 0.63
- OD450 [10]: 1

B11: 34B6D8 (TIM-3 antibody purified from hybridoma, chimeric antibody of Example 2) (antibody, V domains shown)
VH: B2 VH with S31T, S35T, G44R, R53Q, S56G, E57D, R58K, G72T, V79L
VL: EIVMTQSPATLSMSPGERATLSCRASQSVYDNLAWYQQKPGQAPRLLIYGASTRATGIPARFSGSGSGTEFTLTISSLQSEDFALYYCQQYTHWPITFGQGTRLEIK
notes: as for B2
- OD450 [5]: 0.12
- OD450 [6]: 0.58
- binding result [7]: no binding (tested: 66.667 nM)
- OD450 [8]: 0.33
- OD450 [9]: 0.66
- OD450 [10]: 1.62
